According to article doi:10.1101/2024.02.29.582781 (bioRxiv, 2024):

B1: glycerol kinase Saci_1117 (enzyme, Sulfolobus acidocaldarius DSM 639, UniProt Q4J9R1 1-498, looked up)
chain: MSKYILAVDEGTTSARALVFDEDLNVISIAQTELTQYFPRPGYVEQNPEEIFEKQVSMIKKAVEKAKIEISQVSAIGIANQRETTIMWDSRSGRPVYNAVVWQDRRTSDITDWLKSNYLNLFKSKTGLIPDPYFSASKIKWILDNVPGVREKAERGEIKFGTVDTYLIWKLTNGKVHVTDYSNASRTMLFNIKKLEWDRDILEILEIPEAILPEVRSSSEVYGYAEPVGNIPISGDAGDQQAALFGQLGFSKGDVKCTYGTGSFILMNSGEEIYDSKDLLTTIAWKIGKDVKYALEGSIFTTGAAVQWVRDGLGLVSSSDEIESLASSVVDNGGVYFVPAFSGLGSPYWDPYARGLIIGISRGTSRGHIARAVLESIAYQVRDVIEVIKKDVGKEFVNVLKVDGGVSKNNLLMQFQADILGIRIVRPRVIETTSMGASMLAGLAVDYWSSLEELKSKWAVDREFIPSLQEDRRERLYKGWKEAVRRTIGWAREVETME
B2: glycerol kinase Saci_2033 (enzyme, Sulfolobus acidocaldarius DSM 639, UniProt Q4J7A3 1-497, looked up)
chain: MAEKYVIAIDEGTTSARAIVFDKELNILGIGQNEFTQYYPQPGYVEHSPEEIWQAQLLAINKALEKAKIDRNNILSIGITNQRETTVMWDTRTGKPIYNAIVWQDRRTAPITDYLKANYLRLIKDRTGLVPDPYFSASKIKWILDNIPNAREKAEKGEIKFGTIDTYLIWKLTNGKAHVTDYSNASRTMLFNIRKLEWDREILEILNIPEAILPDVKPSSEIYGYAEILNSSIPISGDAGDQQAALFGQIAFNQGDVKCTYGTGSFILLNTGSNLVSSNDLLTTIAWGVGKGITYALEGSIFITGAAVQWFRDGLRAIDVSDEIEPLAGSVPDNGGVYFVPAFTGLGAPYWDPYARGLIIGITRGTTKAHIARAILESMAYQTMDVLGIMQRDSGIKIDALKVDGGASKNDLLMQFQADILKMKVVRPKIMETTSMGVAMLAGLSVGYWNSMDELKQKWKIDQVFEPKMDDEYREKLYSGWKEAVRRALGWAKTIGG
B3: glycerol-3-phosphate dehydrogenase Saci_2032, N-terminally His-tagged (enzyme, Sulfolobus acidocaldarius DSM 639, UniProt Q4J7A2 1-431, looked up)
chain: MEIKTSVLVIGGGANGLFTALDLALRGIDVTLVERRDIGSGTSGRFHGLLHSGARYAVTDPESAKECIQENNIISKIAPHAIRDTGGLFLGITKEDLEFLDKFLSSLKKLGIEHKIVDNNQVLQEEPYVNKDLKIAIWVPDKVVYGYDLLSSIAVTGSLNKARIMTYNEVTEFIRDGNSIKGVKVFDKITNQMNLIKSDIIINTSGPWAFKIITMAGLEEIPILPTAGIMAVFGKKVNNAVLNRLRPPSDGDIIVPYQDTSILGTTATIIEDPDNFTISDEDVKMLIKEGSQLVPELSKTRVIRTYASVRPLMRTSEDGRKASRDFTILDHEREDGVSGLISIIGGKFTTSRLVGEKVGDLVSEKLGVRAKSKTKETKLISPSEIDFEKYLEKIGISKIFLKSVMERRGSLDEERYKTVLYLLLSLIARGR
B4: glycerol-3-phosphate dehydrogenase Saci_1118, N-terminally His-tagged (enzyme, Sulfolobus acidocaldarius DSM 639, UniProt Q4J9Q8 1-428, looked up)
chain: MKQNSSVIVIGGGATGLFTALDLSLRGINVTLVERGDIASGTSGKFHGLLHSGARYAVNDPESAKECKQENEVLSKIAPEFVRDTGGVFVGITEDDVNYSQRFLSALNSLGITNKVMDVEELIRREPFINKKSKIAIWVPDKVVYGYDLLATVALTASLNGAKILTYNEVKRVLREGNSVRRVEVKDNISGETKILNGDIIVNTAGPWAFRVIEMAGLGEIPLLPTAGIMVVMKEKLNSMVINRLRPPSDGDIIVPYGDSSIIGTTATIIPDPDNFEISDEDINMLIEEGAYMIPRLKEVKPERAYASVRPLIKNAEDGRGATRDFMIIDHEKVDSLDGLISVIGGKFTTSRLAGEKVSDMVSEKLGIREKSKTATIKLMSELDEKLLEKKRVPKVLVKMIRERKGSLDEDRYSTAMYILLSLLARGE

Molecular target: the molecule itself
Assay: SEC

Stoichiometry N, 2:
B1
B2
B3
B4
